Earlier results in PMC4438997.

Biological target: Ezrin FERM (Homo sapiens) (UniProt P15311)
Sequence of UniProt P15311 (P15311 1-299): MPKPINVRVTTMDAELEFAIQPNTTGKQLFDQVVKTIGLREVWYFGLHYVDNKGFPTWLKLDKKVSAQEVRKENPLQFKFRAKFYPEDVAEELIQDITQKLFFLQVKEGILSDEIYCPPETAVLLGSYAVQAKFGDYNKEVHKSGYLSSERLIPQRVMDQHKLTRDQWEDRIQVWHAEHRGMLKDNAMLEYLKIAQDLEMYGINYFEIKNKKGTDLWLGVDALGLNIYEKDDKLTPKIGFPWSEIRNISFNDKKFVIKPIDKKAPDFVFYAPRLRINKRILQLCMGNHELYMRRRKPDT

Kd: 0.019 µM
Substance: NHERF1 C-terminal domain (from UniProt O14745)
